These results are taken from the supplement of paper PMC7125110.

B1: glmS ribozyme (parent)
chain: AUAAAAGCGCCAGAACUACAGAAAUGUAGUUGACGAGGAGGAGGUUUAUCGAAUUUUCGGCGGAUGCCUCCAAA

± gives the standard error. This sample holds only a part of the variants without activity.

Variants of B1 are the subject of the series. Briefly: self-cleavage kobs at 10000 uM GlcN6P; higher = faster cleavage; RNA array. To be noted: with glucosamine-6-phosphate. An outline of the steps:
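E. coli RNA polymerase transcribed barcoded ribozyme variants in situ on sequenced MiSeq chips, which were tracked via a hybridised Cy3 probe at 37 °C. Tiles were imaged over ~14 h after glucosamine-6-phosphate (40 μM to 10 mM) in HEPES/KCl/Mg(OAc)2 buffer was flowed in. Normalised per-tile medians were fit to one- or two-exponential decays for kobs, and kcat and KM came from weighted Michaelis–Menten fits.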
As for AUAAAAGCGCCAGAUCUACAGAAAUGUAGUUGACGAGGAGGAGGUUUAUAGAAUUUUCGGCGGAUGUCUCCAAA [A15U C50A C67U], the “self-cleavage kobs at 10000 uM GlcN6P” value is less than 1e-05 s⁻¹.
As to AUAAAAGCGCCAGAUUUACAGAAAUGUAUUUGACGAGGAGGAGGUUUAUCGAAUUUUCGGCGGAUGACUCCAAA [A15U C16U G29U C67A], the “self-cleavage kobs at 10000 uM GlcN6P” value is 0.00151 ± 0.00034 s⁻¹.
In the case of AUAAAAGCGCCAGCACUACAGAAAUGUAGUUGACGAGGAGGAGGUUUAUGGAAUUUUCGGCUGAUGGCUCCAAA [A14C C50G G62U C67G] it was 6.05e-05 ± 1.8e-05 s⁻¹; in that of AUAAAAGCGCCACAACUACAGAAAUGUAGUUGACCAGGAGGAGGUUUACCGAAUUUUCGGCGGAUGCCUCCAAA [G13C G35C U49C], less than 1e-05 s⁻¹.
Under AUAAAAGCGCCAGACGUACAGAAAUGUAGUUGACGAGGAGGAGGUUUAUCGAAUUUUCGGCGGAGGCCUCCAAA [A15C C16G U65G] stands 0.000462 ± 8e-05 s⁻¹.
Under AUAAAAGGGCCAGAACUACAGAAAUGUAGUUGACGAGGAGGUGGUUUAUCGAAUGUUCGGCGGAUGCCUCCAAA [C8G A42U U55G] stands less than 1e-05 s⁻¹; under AUAAAAGCGCCAGAUCUACAGAAAUGUACUUGACGAGGAGGAGGUUUAUCGAAUUUUAGGCGGAUGCCUCCAAA [A15U G29C C58A], 6.87e-05 ± 2.7e-05 s⁻¹; under AUAAAAGCGCCAGAACUACAGAAAUGUAGUUGACGAGGGGGAGAUUUAUCGAAUUUACGGUGGAUGCCUUCAAA [A39G G44A U57A C61U C70U], less than 1e-05 s⁻¹.
AUAAAAGCGCCAGAACUACAGAAAUGUAGUUGACGACGAGAAGGUUUAUCUAAUUUUCGGCUGAUGACUCCAAA [G37C G41A G51U G62U C67A]: the “self-cleavage kobs at 10000 uM GlcN6P” value is less than 1e-05 s⁻¹.
In the case of AUAAAAGCUCCAGAACUACAGAAAUGUAGAUGACGAGGAGGAGGUUUAUCGAAUUGUCGGCGGAUGCCUCCAAA [G9U U30A U56G] it was less than 1e-05 s⁻¹; in that of AUAAAAGCGCCAUAACUACAGAAAUGUAGUUGACGAGGAGGAGGUUUAUCGAAGUUUCGGCGGAUGUCUCCAAA [G13U U54G C67U], 0.000238 ± 4.9e-05 s⁻¹; in that of AUAAAAGCGCCAGAACUACAGAAAUGUAAUUUACGAGGAGGAGGUUUAUAGAAUUUUCGGCGGAUGCGUCCAAA [G29A G32U C50A C68G], 0.000193 ± 6e-05 s⁻¹.
AUAAAAGCGCCAGAACUACAGAAAUGUAGUUGACCAGGAGGAGGUUUAUCCAAUUUUAGGCGGAUGCCUCCAAA [G35C G51C C58A]: the “self-cleavage kobs at 10000 uM GlcN6P” value was less than 1e-05 s⁻¹.
As for AUAAAAGCGCCAGAACUACAGAAAUGUACUUGACGAGGAGGAGAUUCAGCGAAUUUGCGCCGGAUGCUUGCAAA [G29C G44A U47C U49G U57G G60C C68U C70G], the “self-cleavage kobs at 10000 uM GlcN6P” value was less than 1e-05 s⁻¹.
Under AUAAAAGCGCCUGAUCUACAGAAAUGUAGUUGACGAGGAGGAGGUUUAUCGAAUUUGCGGCGGAUGCCUCCAAA [A12U A15U U57G] stands 3.38e-05 ± 1.4e-05 s⁻¹.
In the case of AUAAAAGCGCCAGAACUACAGAAAUGUAGUUGACGAGGAGGAGGUUUAUUGAUUUUUCGGCAGAUGCCUCCAAA [C50U A53U G62A], the “self-cleavage kobs at 10000 uM GlcN6P” value was less than 1e-05 s⁻¹.
Under AUAAAAGCUCCAGAACUACAGAAAUGUAGUGGAUGAGGAGGAGGUUUAUCGAAUUUUCUGCGGAUGCCUCCAAA [G9U U31G C34U G59U] stands less than 1e-05 s⁻¹; under AUAAAAGCGCCAGAACUACAGAAAUGUAGUUGACGAGGAGGAGAUUUAUCGAAUUUUCGGCGGGUGCCUCCAAA [G44A A64G], 3.74e-05 ± 1.4e-05 s⁻¹; under AUAAAAGCGCCAGAACUACAGAAAUGUAGUUGACGAGUAGGAGGAUUAUCGAAUUUUAGGCGGACGCCUCCAAA [G38U U45A C58A U65C], less than 1e-05 s⁻¹.
Take AUAAAAGCGCAUGCACUACAGAAAUGUAGUUGACGAGGAGGAGGUUUAUCGAAUUUUCGGCGGAUGCCUCCAAA [C11A A12U A14C]: the “self-cleavage kobs at 10000 uM GlcN6P” value amounted to 8.7e-05 ± 1.9e-05 s⁻¹.
Regarding AUAAAAGCGCCAGAACUACAGAAAUGUAGGUGACGAGGAGGAGGUCUAUCUAAUUUUCGGCGGAUGCCUCUAAA [U30G U46C G51U C71U], the “self-cleavage kobs at 10000 uM GlcN6P” value is less than 1e-05 s⁻¹.
Take AUAAAAGCGUCAGAACUACAGAAAUGUAGUUGAUGAGGAGGAGGUUUCUCGAAUUUUCGGCGGAUGCCUCCAAA [C10U C34U A48C]: the “self-cleavage kobs at 10000 uM GlcN6P” value is less than 1e-05 s⁻¹.
Under AUAAAAGCGCCAGAGCUACAGAAAUGUAGUUGACGAGGAGCAGGUUGAUCGAAUUUUCGGUGGAAGCCUCCAAA [A15G G41C U47G C61U U65A] stands less than 1e-05 s⁻¹.
Under AUAAAAGCGCCAGAACUACAGAAAUGUAGUUGACGAGGAGGAGUUUUGUUGAAUUUUCGGCGGAUGCCUCUAAA [G44U A48G C50U C71U] stands less than 1e-05 s⁻¹; under AUAAAAGCGCCAGAACUACAGAAAUGUAGUUGACGAGGAGGAGGUUGAUCGAAUUUUCGGCGGAUCCCUCCAAA [U47G G66C], 0.000614 ± 0.00011 s⁻¹; under AUAAAUGCGCCAGAGCUACAGAAAUGUAGUUGACGAGGAGGAAGUUUAUCGAAUUUUCGGCGGAUGCGUCCAAA [A6U A15G G43A C68G], less than 1e-05 s⁻¹.
Under AUAAAAGCGCCAGAACUACAGAAAUGUAGUUGACGAGGAGGAGGUUUAUCGAAUUUUCGGCGAUUGCUUCCAAA [G63A A64U C68U] stands less than 1e-05 s⁻¹.
For AUAAAAGCUCCAGAACUACAGAAAUGUAGUGGACGAGGAGGAGGUUUAUCGAAAUUUCGGCGGAUGCCUCCAAA [G9U U31G U54A], the “self-cleavage kobs at 10000 uM GlcN6P” value is less than 1e-05 s⁻¹.
AUAAAAGCGCCAGAGCUACAGAAAUGUAGUUGACGAGGAGGAGGUUUAUGGAAUUUUCGGCGGAUGCAUCCAAA [A15G C50G C68A]: the “self-cleavage kobs at 10000 uM GlcN6P” value was found to be 7.87e-05 ± 1.6e-05 s⁻¹.
In the case of AUAAAAGCGCCAGAACUACAGAAAUGUAGUUGACGAGGAGGAGGUUUUUCGAAUUUUCGGAGGAUGCCUGCAAA [A48U C61A C70G] it was less than 1e-05 s⁻¹; in that of AUAAAAGCGCCCGAACUACAGAAAUGUAGUUGACGAGGAGGAGGUUUAUCGAAUUUUCGUUGGAUGCCUCCAAA [A12C G60U C61U], less than 1e-05 s⁻¹; in that of AUAAAAGCGCCAUAACUACAGAAAUGUAGUUGACGAGGAGGAUGUUUAUCGAAUUUUCGGCGGUUGCCUCCAAA [G13U G43U A64U], less than 1e-05 s⁻¹.
With AUAAAAGCCCCAGAACUACAGAAAUGUAGUUGACGAGGAGUAUGUUUAUCGAAUUUUCGGCGGAUGGCUCCAAA [G9C G41U G43U C67G], the “self-cleavage kobs at 10000 uM GlcN6P” value was less than 1e-05 s⁻¹.
Under AUAAAAGCGCCAGAGCUACAGAAAUGUAGUUGACGAGGAGGAGGUUUAUCGAAUUUUCGGCGGAUUCCUACAAA [A15G G66U C70A] stands 8.77e-05 ± 1.7e-05 s⁻¹; under AUAAAAGCGCAAGAACUACAGAAAUGUAGUUGACGAGGAGGAGGUUGAUCGAAUUUUCGGCGGAUGCCUCCAAA [C11A U47G], 5.18e-05 ± 1.5e-05 s⁻¹; under AUAAAAGCGCCCGAACUACAGAAAUGUAGUUGACGAGGAGGAGGUUUAUCGAAUUUGCGGCGGAUGCCUCCAAA [A12C U57G], 5.46e-05 ± 1.2e-05 s⁻¹.
As for AUAAAAGCGCCAGAGCUACAGAAAUGUAGUUGACAAGGAGGAGGUUUAUCGAAUUUGCGGCAGAUGCCUCCAAA [A15G G35A U57G G62A], the “self-cleavage kobs at 10000 uM GlcN6P” value is less than 1e-05 s⁻¹.
